{"source": "patent US20250215403A1", "about": "“Compositions and Methods for Cardiac Tissue Regeneration” (Temple University - Of The Commonwealth System Of Higher …, priority 2022, published 2025)", "molecules": {"B1": {"name": "PSAT1 modRNA: modified mRNA with N1-methylpseudouridine, transcribed in vitro, encoding phosphoserine aminotransferase 1 (ORF SEQ ID NO: 1, RNA SEQ ID NO: 2) (nucleic acid)", "chain": "AUGGAAGCCACCAAGCAAGUGGUUAACUUUGGGCCCGGGCCUGCCAAGCUGCCACACUCGGUAUUGUUGGAGAUCCAGAAGCAGCUACUAGACUACAGAGGACUCGGCAUCAGUGUGCUCGAAAUGAGUCACAGGUCAUCAGAUUUUGCCAAGAUUAUUGGCAAUACAGAGAAUCUUGUGAGGGAAUUGCUAGCUGUUCCCAACAACUACAAGGUGAUCUUUGUACAAGGAGGUGGGUCUGGCCAGUUCAGUGCUGUCCCCUUAAAUCUGAUUGGCCUGAAAGCUGGAAGGAGUGCUGACUACGUGGUGACCGGAGCUUGGUCAGCUAAGGCUGCGGAAGAAGCCAAGAAGUUUGGAACGGUGAACAUUGUCCACCCUAAACUUGGAAGUUACACAAAAAUUCCAGACCCAAGCACCUGGAACCUCAACCCGGACGCCUCCUAUGUAUACUUCUGUGCAAACGAGACUGUGCACGGGGUGGAGUUUGACUUCGUACCUGACGUCAAGGGAGCGGUGCUGGUCUGUGACAUGUCCUCAAACUUCUUAUCCAGGCCGGUGGAUGUUUCCAAGUUUGGUGUGAUUUUCGCUGGUGCUCAGAAGAAUGUUGGCUCUGCCGGGGUGACGGUGGUGAUUGUCCGGGAUGACCUGCUGGGGUUCUCGCUCAGAGAGUGCCCAUCAGUCCUUGACUACAAAGUGCAGGCUGGGAACAACUCUUUGUAUAACACACCUCCGUGCUUCAGCAUCUACGUCAUGGGCAUGGUCCUGGAAUGGAUCAAGAACAACGGCGGGGCCGCAGCCAUGGAGAAGCUCAGCUCCAUCAAAUCCCAAAUGAUUUAUGAGAUCAUUGAUAAUUCUCAAGGAUUUUAUGUAUGCCCAGUGGAGCGCCAGAAUAGAAGCAGGAUGAACAUCCCAUUUCGCAUUGGCAACGCCAAAGGAGACGAAGCUUUGGAAAAGCGGUUUCUUGACAAGGCGGUAGAACUCAACAUGAUCUCCUUGAAGGGGCACAGGUCAGUGGGAGGCAUUCGUGCCUCUCUGUAUAACGCUGUCACAACCGAAGACGUUGAGAAGCUGGCGGCCUUCAUGAAGAAUUUCUUGGAGAUGCAUCAGCUGUGA", "modifications": "N1-methylpseudouridine"}}, "test_system": "NRVM (neonatal rat ventricular CMs)", "test": "NRVM transfection (modRNA, siRNA, PH755): CM cell cycle markers and CM number", "assay_type": "cell-based", "description": "In vivo transfection of modRNA was done as described previously in a recent method paper (Magadum A., et al., Circulation. 2020, 141 (15): 1249-1265; Sultana N., et al., Mol Ther, 2017, 25 (6): 1306-1315) using sucrose citrate buffer containing 10 μl of sucrose in nuclease-free water (0.3 g/ml), 10 μl of citrate (0.1M pH-7; Sigma) mixed with 10 μl of different concentrations of modRNA in saline to a total volume of 30 μl. Immediately after LAD ligation, mice received an intra-myocardial injection of modRNA (100 μg) in total volume of 30 μL at 3 different sites (mid-anterior×2 places and apical anterior) in the peri-infarct area (Magadum A., et al., Circulation. 2020, 141 (15): 1249-1265; Magadum, A., et al., 2021, Advanced Science, 9:2004661). For in vitro transfection, RNAiMAX transfection reagent (Life Technologies) was used according to manufacturer's recommendation (Magadum A., et al., Circulation. 2020, 141 (15): 1249-1265; Sultana N., et al., Mol Ther, 2017, 25 (6): 1306-1315).\nMice hearts were harvested, weighed, and fixed in 4% PFA/PBS overnight on shaker and then washed with PBS for 1 hour and incubated in 30% sucrose/PBS at 4° C. for 12-18 hours. Hearts were then fixed in OCT and frozen at −80° C. (Magadum A., et al., Circulation. 2020, 141 (15): 1249-1265). Transverse heart sections (6-8 μm) were made using a cryostat. Frozen sections were rehydrated in PBS for 5-10 min followed by permeabilization with PBS with 0.1% Triton™ X100 (PBST) for 7-8 min. Heart sections were then treated with 3% H2O2 for 5 min and washed (3×5 min) with PBST. The samples were then blocked with PBS+10% Donkey normal serum+0.1% Triton™ X100 (PBSST) for 1 hour at room temperature. Primary antibodies (see complete list of primary antibodies used for this Example in Table 2 below) diluted in PBST were added and incubated overnight at 4° C. Slides were washed with PBST (3×5 min) followed by incubation with a secondary antibody (Invitrogen, 1:200) diluted in PBST for 90-120 min at room temperature. The samples were further washed with PBST (3×5 min) and stained with DAPI or Hoechst 33342 (1 μg/ml) diluted in PBST for 7 min. […] For immunostaining with wheat germ agglutinin (WGA) for CM size quantification, images were captured at 40× magnification, and ImageJ was used to determine the area of each cell. Quantitative analyses involved counting of multiple fields from 5-8 mouse hearts per group, and 3-4 sections/heart (˜50 cells per field assessed, for a total ˜250 cells per sample). […] BrdU positive CMs were counted in multiple fields from three independent samples per group and 3 sections/heart. The total number of CMs counted was ˜1-1.5×10^3 CMs per section. […]"}
{"molecule": "B1", "values": [{"measurement": "CM mitosis (pH3+)", "setting": "NRVM, after 3 days, vs Luc modRNA", "result": "significantly induced"}, {"measurement": "CM number", "setting": "NRVM, in 5 days, vs Luc modRNA", "result": "increased"}, {"measurement": "CM cell cycle restriction under SSP inhibition", "setting": "NRVM, PSAT1 modRNA plus PH755 10 μM, compared to control, significantly lower rate than PSAT1 modRNA alone", "result": "partially reversed"}, {"measurement": "dedifferentiation of CMs", "setting": "post-PSAT1 modRNA expression", "result": "Increased"}]}
